{
  "source": "patent US12194095B2",
  "about": "“Combinations and uses thereof” (Incyte Corporation, priority 2015, dated 2025)",
  "molecules": {"B1": {"name": "MOR00208: anti-CD19 antibody; variable domains in FIG. 1, Fc regions in FIG. 2 (antibody)", "heavy": "EVQLVESGGGLVKPGGSLKLSCAASGYTFTSYVMHWVRQAPGKGLEWIGYINPYNDGTKYNEKFQGRVTISSDKSISTAYMELSSLRSEDTAMYYCARGTYYYGTRVFDYWGQGTLVTVSSASTKGPSVFPLAPSSKSTSGGTAALGCLVKDYFPEPVTVSWNSGALTSGVHTFPAVLQSSGLYSLSSVVTVPSSSLGTQTYICNVNHKPSNTKVDKKVEPKSCDKTHTCPPCPAPELLGGPDVFLFPPKPKDTLMISRTPEVTCVVVDVSHEDPEVQFNWYVDGVEVHNAKTKPREEQFNSTFRVVSVLTVVHQDWLNGKEYKCKVSNKALPAPEEKTISKTKGQPREPQVYTLPPSREEMTKNQVSLTCLVKGFYPSDIAVEWESNGQPENNYKTTPPMLDSDGSFFLYSKLTVDKSRWQQGNVFSCSVMHEALHNHYTQKSLSLSPGK", "light": "DIVMTQSPATLSLSPGERATLSCRSSKSLQNVNGNTYLYWFQQKPGQSPQLLIYRMSNLNSGVPDRFSGSGSGTEFTLTISSLEPEDFAVYYCMQHLEYPITFGAGTKLEIKRTVAAPSVFIFPPSDEQLKSGTASVVCLLNNFYPREAKVQWKVDNALQSGNSQESVTEQDSKDSTYSLSSTLTLSKADYEKHKVYACEVTHQGLSSPVTKSFNRGEC"}},
  "tested_on": "MEC-1 cells",
  "experiment": "ADCC cytotoxicity (target cell killing) of MEC-1 cells with NK cells, MOR00208 and Idelalisib alone and in combination",
  "format": "cell-based, human",
  "experimental": "The cytotoxicity of MOR00208 and Idelalisib alone and in combination were tested in the MEC-1 cell line.\nIdelalisib is a phosphoinositide 3-kinase inhibitor; more specifically, it blocks P110δ, the delta isoform of the enzyme phosphoinositide 3-kinase. […] MOR00208 targets CD19 and mediates target cell killing via ADCC.\nThe following were used as controls: a) MEC-1 cells+RefmAb33+DMSO+NK cells, b) MEC-1 cells+DMSO+NK cells, c) MEC-1 cells+DMSO.\nTarget cell killing was measured using the following parameters: Idelalisib at concentrations of 0.3, 1, 3 and 10 μM; MOR00208 at concentrations of 1.5, 0.015 and 0.0015 μg/ml and the combination of MOR00208 and Idelalisib at the same concentrations.\nIn the Idelalisib group, […] in the MOR00208+Idelalisib combination group, target cells were pre-treated with Idelalisib for 7 days prior to the ADCC assay measurements. The target cells were counted and stained using 10 μM CFSE end concentration. For DMSO treated target cells, an effector:target (E:T) ratio of 2:1 is chosen, corresponding to a cell density of 5×10^5/ml. The proliferative effect on target cells caused by Idelalisib treatment was included by adjusting the E:T ratio in inhibitor treated cells. The NK cells are counted and adjusted to 1×10^6/ml. The target cell killing assays were performed as follows: using 96 well plates, 100 μl of target cell suspension was added per well, followed by 100 μl cell suspension of NK cells to each well resulting in an E:T ratio of 2:1. The antibodies were diluted in a range of 10-0.00001 nM (corresponding to 1.5-0.0000015 μg/ml) in medium. Cells were centrifuged and target:effector cell-pellets were re-suspended in 100 μl antibody-containing medium or the according control solution. The assay was incubated for 4 h in CO2-incubator at 37° C. After 10 min incubation on ice, 50 μl DAPI solution was added to each well (final concentration 1 μg/ml) and incubated on ice for 10 min. The cell killing measurements were performed with FACS-Verse. Dead target cells were DAPI positive.\nIn total, six experiments were performed in order to determine the mediation of ADCC on MEC-1 cells by the combination of MOR00208 and Idelalisib. […] The autoreactivity of the NK cells prevented a proper analysis in those two experiments.\nThe % dead cells (raw data) from Tables 1-16 was analysed in the following way:\n[formula] [formula] [formula] where A is the treatment with MOR00208 alone; B is the treatment with Idelalisib alone; C is response to the control DMSO+RefMab33; AB is the combination of treatments A and B.\nIn order to confirm the results of synergy as calculated using Clarke et al. above, the Combination Index (CI) method was applied to the % dead cells (raw data) of Tables 1-16. For CI calculations, we used 0.3, 1, 3 and 10 μM Idelalisib and three MOR208 concentrations (1.5, 0.015 and 0.0015 μg/ml).",
  "data": [
    {"molecule": "B1", "values": [
      {"measurement": "% dead cells", "setting": "Experiment 1, Idelalisib 0.3 μM, MOR00208 0.01 nM (0.0015 μg/ml)", "result": 40.3, "unit": "%"},
      {"measurement": "% dead cells", "setting": "Experiment 1, Idelalisib 0.3 μM, MOR00208 0.1 nM (0.015 μg/ml)", "result": 63.1, "unit": "%"},
      {"measurement": "% dead cells", "setting": "Experiment 1, Idelalisib 0.3 μM, MOR00208 10 nM (1.5 μg/ml)", "result": 62.9, "unit": "%"},
      {"measurement": "% dead cells", "setting": "Experiment 1, Idelalisib 1 μM, MOR00208 0.01 nM (0.0015 μg/ml)", "result": 40.3, "unit": "%"},
      {"measurement": "% dead cells", "setting": "Experiment 1, Idelalisib 1 μM, MOR00208 0.1 nM (0.015 μg/ml)", "result": 63.1, "unit": "%"},
      {"measurement": "% dead cells", "setting": "Experiment 1, Idelalisib 1 μM, MOR00208 10 nM (1.5 μg/ml)", "result": 62.9, "unit": "%"},
      {"measurement": "% dead cells", "setting": "Experiment 1, Idelalisib 3 μM, MOR00208 0.01 nM (0.0015 μg/ml)", "result": 40.3, "unit": "%"},
      {"measurement": "% dead cells", "setting": "Experiment 1, Idelalisib 3 μM, MOR00208 0.1 nM (0.015 μg/ml)", "result": 63.1, "unit": "%"},
      {"measurement": "% dead cells", "setting": "Experiment 1, Idelalisib 3 μM, MOR00208 10 nM (1.5 μg/ml)", "result": 62.9, "unit": "%"},
      {"measurement": "% dead cells", "setting": "Experiment 1, Idelalisib 10 μM, MOR00208 0.01 nM (0.0015 μg/ml)", "result": 40.3, "unit": "%"},
      {"measurement": "% dead cells", "setting": "Experiment 1, Idelalisib 10 μM, MOR00208 0.1 nM (0.015 μg/ml)", "result": 63.1, "unit": "%"},
      {"measurement": "% dead cells", "setting": "Experiment 1, Idelalisib 10 μM, MOR00208 10 nM (1.5 μg/ml)", "result": 62.9, "unit": "%"},
      {"measurement": "% dead cells", "setting": "Experiment 2, Idelalisib 0.3 μM, MOR00208 0.01 nM (0.0015 μg/ml)", "result": 52.9, "unit": "%"},
      {"measurement": "% dead cells", "setting": "Experiment 2, Idelalisib 0.3 μM, MOR00208 0.1 nM (0.015 μg/ml)", "result": 78.9, "unit": "%"},
      {"measurement": "% dead cells", "setting": "Experiment 2, Idelalisib 0.3 μM, MOR00208 10 nM (1.5 μg/ml)", "result": 85.6, "unit": "%"},
      {"measurement": "% dead cells", "setting": "Experiment 2, Idelalisib 1 μM, MOR00208 0.01 nM (0.0015 μg/ml)", "result": 52.9, "unit": "%"},
      {"measurement": "% dead cells", "setting": "Experiment 2, Idelalisib 1 μM, MOR00208 01 nM (0.015 μg/ml)", "result": 78.9, "unit": "%"},
      {"measurement": "% dead cells", "setting": "Experiment 2, Idelalisib 1 μM, MOR00208 10 nM (1.5 μg/ml)", "result": 85.6, "unit": "%"},
      {"measurement": "% dead cells", "setting": "Experiment 2, Idelalisib 3 μM, MOR00208 0.01 nM (0.0015 μg/ml)", "result": 52.9, "unit": "%"},
      {"measurement": "% dead cells", "setting": "Experiment 2, Idelalisib 3 μM, MOR00208 0.1 nM (0.015 μg/ml)", "result": 78.9, "unit": "%"},
      {"measurement": "% dead cells", "setting": "Experiment 2, Idelalisib 3 μM, MOR00208 10 nM (1.5 μg/ml)", "result": 85.6, "unit": "%"},
      {"measurement": "% dead cells", "setting": "Experiment 2, Idelalisib 10 μM, MOR00208 0.01 nM (0.0015 μg/ml)", "result": 52.9, "unit": "%"},
      {"measurement": "% dead cells", "setting": "Experiment 2, Idelalisib 10 μM, MOR00208 0.1 nM (0.015 μg/ml)", "result": 78.9, "unit": "%"},
      {"measurement": "% dead cells", "setting": "Experiment 2, Idelalisib 10 μM, MOR00208 10 nM (1.5 μg/ml)", "result": 85.6, "unit": "%"},
      {"measurement": "% dead cells", "setting": "Experiment 3, Idelalisib 0.3 μM, MOR00208 0.01 nM (0.0015 μg/ml)", "result": 43.5, "unit": "%"},
      {"measurement": "% dead cells", "setting": "Experiment 3, Idelalisib 0.3 μM, MOR00208 0.1 nM (0.015 μg/ml)", "result": 59.5, "unit": "%"},
      {"measurement": "% dead cells", "setting": "Experiment 3, Idelalisib 0.3 μM, MOR00208 10 nM (1.5 μg/ml)", "result": 62.0, "unit": "%"},
      {"measurement": "% dead cells", "setting": "Experiment 3, Idelalisib 1 μM, MOR00208 0.01 nM (0.0015 μg/ml)", "result": 43.5, "unit": "%"},
      {"measurement": "% dead cells", "setting": "Experiment 3, Idelalisib 1 μM, MOR00208 0.1 nM (0.015 μg/ml)", "result": 59.5, "unit": "%"},
      {"measurement": "% dead cells", "setting": "Experiment 3, Idelalisib 1 μM, MOR00208 10 nM (1.5 μg/ml)", "result": 62.0, "unit": "%"},
      {"measurement": "% dead cells", "setting": "Experiment 3, Idelalisib 3 μM, MOR00208 0.01 nM (0.0015 μg/ml)", "result": 43.5, "unit": "%"},
      {"measurement": "% dead cells", "setting": "Experiment 3, Idelalisib 3 μM, MOR00208 0.1 nM (0.015 μg/ml)", "result": 59.5, "unit": "%"},
      {"measurement": "% dead cells", "setting": "Experiment 3, Idelalisib 3 μM, MOR00208 10 nM (1.5 μg/ml)", "result": 62.0, "unit": "%"},
      {"measurement": "% dead cells", "setting": "Experiment 3, Idelalisib 10 μM, MOR00208 0.01 nM (0.0015 μg/ml)", "result": 43.5, "unit": "%"},
      {"measurement": "% dead cells", "setting": "Experiment 3, Idelalisib 10 μM, MOR00208 0.1 nM (0.015 μg/ml)", "result": 59.5, "unit": "%"},
      {"measurement": "% dead cells", "setting": "Experiment 3, Idelalisib 10 μM, MOR00208 10 nM (1.5 μg/ml)", "result": 62.0, "unit": "%"},
      {"measurement": "% dead cells", "setting": "Experiment 4, Idelalisib 0.3 μM, MOR00208 0.01 nM (0.0015 μg/ml)", "result": 56.3, "unit": "%"},
      {"measurement": "% dead cells", "setting": "Experiment 4, Idelalisib 0.3 μM, MOR00208 0.1 nM (0.015 μg/ml)", "result": 73.3, "unit": "%"},
      {"measurement": "% dead cells", "setting": "Experiment 4, Idelalisib 0.3 μM, MOR00208 10 nM (1.5 μg/ml)", "result": 74.6, "unit": "%"},
      {"measurement": "% dead cells", "setting": "Experiment 4, Idelalisib 1 μM, MOR00208 0.01 nM (0.0015 μg/ml)", "result": 56.3, "unit": "%"},
      {"measurement": "% dead cells", "setting": "Experiment 4, Idelalisib 1 μM, MOR00208 0.1 nM (0.015 μg/ml)", "result": 73.3, "unit": "%"},
      {"measurement": "% dead cells", "setting": "Experiment 4, Idelalisib 1 μM, MOR00208 10 nM (1.5 μg/ml)", "result": 74.6, "unit": "%"},
      {"measurement": "% dead cells", "setting": "Experiment 4, Idelalisib 3 μM, MOR00208 0.01 nM (0.0015 μg/ml)", "result": 56.3, "unit": "%"},
      {"measurement": "% dead cells", "setting": "Experiment 4, Idelalisib 3 μM, MOR00208 0.1 nM (0.015 μg/ml)", "result": 73.3, "unit": "%"},
      {"measurement": "% dead cells", "setting": "Experiment 4, Idelalisib 3 μM, MOR00208 10 nM (1.5 μg/ml)", "result": 74.6, "unit": "%"},
      {"measurement": "% dead cells", "setting": "Experiment 4, Idelalisib 10 μM, MOR00208 0.01 nM (0.0015 μg/ml)", "result": 56.3, "unit": "%"},
      {"measurement": "% dead cells", "setting": "Experiment 4, Idelalisib 10 μM, MOR00208 0.1 nM (0.015 μg/ml)", "result": 73.3, "unit": "%"},
      {"measurement": "% dead cells", "setting": "Experiment 4, Idelalisib 10 μM, MOR00208 10 nM (1.5 μg/ml)", "result": 74.6, "unit": "%"}
    ]}
  ]
}
